# Laboratory results: patent publication US20120030779A1 (UNIVERSITY OF UTAH RESEARCH FOUNDTION, published 2012)
# B1: mouse alphaB-crystallin (endogenous CryAB of non-transgenic mouse heart) (other, UniProt P23927 1-175, looked up)
# chain: MDIAIHHPWIRRPFFPFHSPSRLFDQFFGEHLLESDLFSTATSLSPFYLRPPSFLRAPSWIDTGLSEMRLEKDRFSVNLDVKHFSPEELKVKVLGDVIEVHGKHEERQDEHGFISREFHRKYRIPADVDPLTITSSLSSDGVLTVNGPRKQVSGPERTIPITREEKPAVAAAPKK
# notes: Only CryAB present in NTg heart extracts; also called CryAB (NTg)
# Target: T1, glucose-6-phosphate dehydrogenase (G6PD), mouse heart (mouse, UniProt Q00612 2-515)
# T1 construct: Endogenous protein immunoprecipitated or detected with rabbit anti-G6PD; also called G6PDH
# T1 sequence (Q00612 2-515 limits assumed): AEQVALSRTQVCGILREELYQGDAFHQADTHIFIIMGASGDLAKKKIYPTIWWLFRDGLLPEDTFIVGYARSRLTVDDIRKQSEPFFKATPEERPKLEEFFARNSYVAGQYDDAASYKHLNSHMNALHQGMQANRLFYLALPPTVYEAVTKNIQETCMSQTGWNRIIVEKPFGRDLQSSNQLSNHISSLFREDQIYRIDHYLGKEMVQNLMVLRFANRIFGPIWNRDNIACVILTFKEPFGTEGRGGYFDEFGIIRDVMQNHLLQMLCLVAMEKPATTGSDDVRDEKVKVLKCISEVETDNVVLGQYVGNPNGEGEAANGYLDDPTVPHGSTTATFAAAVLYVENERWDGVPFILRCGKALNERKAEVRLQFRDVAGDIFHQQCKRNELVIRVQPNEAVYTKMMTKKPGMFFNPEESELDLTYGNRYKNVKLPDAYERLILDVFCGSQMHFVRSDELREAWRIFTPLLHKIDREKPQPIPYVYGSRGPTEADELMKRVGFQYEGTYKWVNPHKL
# Assay: co-immunoprecipitation (anti-G6PD IP, anti-CryAB blot) from NTg mouse heart homogenate
# Experimental: Immunoprecipitation and Immunoblotting: Heart homogenates were first prepared in TBS (10 mM Tris, 150 mM NaCl, pH 7.4) and centrifuged at 10,000 g for 15 minutes at 4° C.
binder,measurement,value
B1,binding result,no binding
